{"source": "patent US20210363269A1", "about": "(ALX ONCOLOGY, published 2021)", "key": {"[1]": {"target": "T1, BALB/c mouse SIRP-α D1 domain (mouse (BALB/c strain))", "T1 chain": "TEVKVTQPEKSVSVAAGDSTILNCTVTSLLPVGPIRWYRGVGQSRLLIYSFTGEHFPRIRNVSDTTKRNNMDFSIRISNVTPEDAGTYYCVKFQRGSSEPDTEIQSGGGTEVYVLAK", "test": "SPR, Langmuir fit"}, "[2]": {"target": "T2, cynomolgus SIRP-α D1 domain (SEQ ID NO:11) (cynomolgus, UniProt Q5TFQ8 30-148 (human entry), limits assumed)", "T2 construct": "also called cyno1", "T2 chain": "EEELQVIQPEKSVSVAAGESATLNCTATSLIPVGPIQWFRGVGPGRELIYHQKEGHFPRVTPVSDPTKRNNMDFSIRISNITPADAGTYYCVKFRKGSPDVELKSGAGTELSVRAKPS", "test": "SPR, Langmuir fit"}, "[3]": {"target": "T3, human SIRP-α v1 D1 domain (human, UniProt P78324 31-149)", "T3 construct": "also called human v1; human α v1", "test": "SPR, Langmuir fit"}, "[4]": {"target": "T4, human SIRP-α v2 D1 domain (human)", "T4 construct": "also called human v2; human α v2", "test": "SPR, Langmuir fit"}, "[5]": {"target": "T5, human SIRPγ isoform 1 (human, UniProt Q9P1W8 29-147)", "T5 construct": "also called sirpg; sirp-g", "T5 sequence (Q9P1W8 29-147 limits assumed)": "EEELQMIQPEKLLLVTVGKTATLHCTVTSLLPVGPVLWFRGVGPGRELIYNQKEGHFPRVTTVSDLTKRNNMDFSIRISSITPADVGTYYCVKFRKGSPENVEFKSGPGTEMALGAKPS", "test": "SPR, Langmuir fit"}, "[6]": {"target": "T6, human SIRPβ isoform 1 (human, UniProt O00241 30-148)", "T6 construct": "also called sirpb1; Sirpb1", "T6 sequence (O00241 30-148 limits assumed)": "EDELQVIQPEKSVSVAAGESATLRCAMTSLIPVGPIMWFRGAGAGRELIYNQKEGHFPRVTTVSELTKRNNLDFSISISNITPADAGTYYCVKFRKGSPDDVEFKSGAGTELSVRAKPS", "test": "SPR, Langmuir fit"}, "[7]": {"target": "T7, cynomolgus SIRP-α D1 domain (SEQ ID NO:12) (cynomolgus, UniProt Q5TFQ8 30-148 (human entry), limits assumed)", "T7 construct": "also called cyno2; Cyno2", "T7 chain": "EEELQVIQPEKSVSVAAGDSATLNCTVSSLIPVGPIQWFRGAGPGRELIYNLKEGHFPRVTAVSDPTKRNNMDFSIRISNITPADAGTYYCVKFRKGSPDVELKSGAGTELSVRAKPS", "test": "SPR, Langmuir fit"}, "[8]": {"target": "T8, C57BL/6 mouse SIRP-α D1 domain (mouse (C57BL/6 strain), UniProt P97797 32-148)", "T8 sequence": "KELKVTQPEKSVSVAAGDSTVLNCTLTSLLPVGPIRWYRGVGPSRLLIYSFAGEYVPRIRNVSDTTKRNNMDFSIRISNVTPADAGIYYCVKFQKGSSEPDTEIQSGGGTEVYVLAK", "test": "SPR, Langmuir fit"}, "[9]": {"target": "T9, NOD mouse SIRP-α D1 domain (mouse (NOD strain))", "T9 chain": "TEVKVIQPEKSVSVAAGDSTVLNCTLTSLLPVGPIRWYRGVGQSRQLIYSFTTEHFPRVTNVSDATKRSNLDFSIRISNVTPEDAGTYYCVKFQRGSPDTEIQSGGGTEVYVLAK", "test": "SPR, Langmuir fit"}, "[10]": {"target": "T10, human SIRPβ isoform 2 (human, UniProt Q5TFQ8 30-148)", "T10 construct": "also called Sirpb2; beta isoform 2", "T10 sequence (Q5TFQ8 30-148 limits assumed)": "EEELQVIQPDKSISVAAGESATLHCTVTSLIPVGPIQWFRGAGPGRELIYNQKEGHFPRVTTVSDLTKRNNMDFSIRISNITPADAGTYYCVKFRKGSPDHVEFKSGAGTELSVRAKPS", "test": "SPR, Langmuir fit"}, "[11]": {"target": "T4, human SIRP-α v2 D1 domain", "test": "SPR, antibody immobilised on GLC chip; Table M cell, 119 Mut/mut on human v2", "outline": "(§1)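 Antibodies purified with Protein A were amine-coupled (~1000 RU) to a ProteOn XPR36 GLC chip, and SIRP analytes were injected one-shot at 100, 33, 11, 3.7, 1.2 and 0 nM in PBS pH 7.4 with 0.01% Tween-20 at 25° C. Each run used 90 s association at 100 μL/min followed by 1200 s dissociation. KD was derived as kd/ka from a global Langmuir fit to double-referenced sensorgrams.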"}, "[12]": {"target": "T2, cynomolgus SIRP-α D1 domain (SEQ ID …)", "test": "SPR, antibody immobilised on GLC chip"}, "[13]": {"target": "T3, human SIRP-α v1 D1 domain", "test": "SPR, antibody immobilised on GLC chip"}, "[14]": {"target": "T11, human SIRP-α v2 D1 domain (human)", "T11 construct": "biotinylated and captured on avidin in the ELISA; also called human v2", "test": "SPR, antibody immobilised on GLC chip; sentence of the text that cites Table M", "outline": "as §1"}, "[15]": {"target": "T12, human SIRP-α v1 D1 domain (human, UniProt P78324 31-149)", "T12 construct": "biotinylated and captured on avidin in the ELISA; also called human v1", "test": "SPR, antibody immobilised on GLC chip; sentence of the text that cites Table M", "outline": "as §1"}}, "data": [{"binder": "AB3 (as in Table J1) (antibody, V domains shown, also called antibody 3) VH: AVTLDESGGGLQTPGGALSLVCKASGFIFSDYGMNWVRQAPGKGLEFVAQITSGSRTYYGAAVKGRATISRDNRQSTVKLQLNNLRAEDTGIYFCARDFGSGVGSIDAWGNGTEVIVSS VL: ALTQPASVSANLGGTVKITCSGSRGRYGWYQQRSPGSAPVTVIYRDNQRPSNIPSRFSSSTSGSTSTLTITGVQADDESVYFCGSYDGSIDIFGAGTTLTVL", "values": [{"measurement": "Kd", "setting": "[1]", "value": 1.16, "unit": "nM"}, {"measurement": "Kd", "setting": "[2]", "value": 2.29, "unit": "nM"}, {"measurement": "Kd", "setting": "[3]", "value": 0.162, "unit": "nM"}, {"measurement": "Kd", "setting": "[4]", "value": 0.0767, "unit": "nM"}, {"measurement": "Kd", "setting": "[5]", "value": 83.6, "unit": "nM"}, {"measurement": "Kd", "setting": "[6]", "value": 1.63, "unit": "nM"}, {"measurement": "Kd", "setting": "[7]", "value": 2.85, "unit": "nM"}, {"measurement": "Kd", "setting": "[8]", "value": 3.65, "unit": "nM"}, {"measurement": "Kd", "setting": "[9]", "value": 1.63, "unit": "nM"}, {"measurement": "Kd", "setting": "[10]", "value": 0.0678, "unit": "nM"}]}, {"binder": "antibody 119 variant Mut/mut (VL mut all / VH mut) (antibody, human IgG1, V domains shown, Human IgG1 with L234A/L235A/G237A/N297A; Labels are in the order VL/VH) VH: EVQLLESGGGVVQPGGSLRLSCAASGFSFSNFAVTWVRQAPGKGLEWVSTIGSGDTYYADSVKGRFTISRDNSKNTLYLQMNSLRAEDTAVYYCAKDSTVSWSGDFFDYWGQGTLVTVSS VL: EIVLTQSPATLSVSPGERATLSCRASQNVKNDLAWYQQKPGQAPRLLIYAARIRETGIPARFSGSGSGTEFTLTISSLQSEDFAVYYCQQYYDWPPFTFGGGTKVEIK", "values": [{"measurement": "Kd", "setting": "[11]", "value": 0.0875, "unit": "nM"}, {"measurement": "Kd", "setting": "[12]", "value": 0.195, "unit": "nM"}, {"measurement": "Kd", "setting": "[13]", "value": 0.317, "unit": "nM"}]}, {"binder": "119 antibody variant with mutated heavy and light chains (antibody, human IgG1, V domains shown, human IgG1 with L234A, L235A, G237A, N297A) VH: EVQLLESGGGVVQPGGSLRLSCAASGFSFSNFAVTWVRQAPGKGLEWVSTIGSGDTYYADSVKGRFTISRDNSKNTLYLQMNSLRAEDTAVYYCAKDSTVSWSGDFFDYWGQGTLVTVSS VL: EIVLTQSPATLSVSPGERATLSCRASQNVKNDLAWYQQKPGQAPRLLIYAARIRETGIPARFSGSGSGTEFTLTISSLQSEDFAVYYCQQYYDWPPFTFGGGTKVEIK", "values": [{"measurement": "Kd", "setting": "[14]", "value": 0.0875, "unit": "nM"}, {"measurement": "Kd", "setting": "[15]", "value": 0.317, "unit": "nM"}]}]}
